Source: article PMC6021247

Tests used:
[1] = target: rabbit APOBEC3A fused to Cherry (rA3A-Cherry) (rabbit); test: FRET or BRET; flow cytometry-based FRET (FRET-FACS); HEK-293T cells 48 hours after co-transfection of a Cherry-fusion and a GFP-fusion plasmid; percentage of FRET+ cells gated on Cherry+ and GFP+ cells
[2] = target: rabbit TRIB3 pseudokinase fused to GFP (rTRIB3-GFP) (rabbit); test: as above

percentage of fluorescent cells in the FRET channel [1]: 19%
percentage of fluorescent cells in the FRET channel [2]: 11%
Substance: rabbit APOBEC3A fused to Cherry (rA3A-Cherry) (enzyme)
